# Bridges are numbered along the chain shown (N, C = ends). Where no end group is shown, it is not given here. [ ]: non-standard residue; d: D form. Phe(4-NO2) = N[C@@H](Cc1ccc([N+](=O)[O-])cc1)C(=O)O; Phe(4-COOH) = N[C@@H](Cc1ccc(C(=O)O)cc1)C(=O)O; Bpa = N[C@@H](Cc1ccc(C(=O)c2ccccc2)cc1)C(=O)O; Hyp = O=C(O)[C@@H]1C[C@@H](O)CN1; 0P linker = not defined here; 4P linker = not defined here; ThA = not defined here
# T1: human angiopoietin-2 protein (human, UniProt O15123 19-496)
# T1 construct: also called Ang-2; Ang2
# T1 sequence (looked up): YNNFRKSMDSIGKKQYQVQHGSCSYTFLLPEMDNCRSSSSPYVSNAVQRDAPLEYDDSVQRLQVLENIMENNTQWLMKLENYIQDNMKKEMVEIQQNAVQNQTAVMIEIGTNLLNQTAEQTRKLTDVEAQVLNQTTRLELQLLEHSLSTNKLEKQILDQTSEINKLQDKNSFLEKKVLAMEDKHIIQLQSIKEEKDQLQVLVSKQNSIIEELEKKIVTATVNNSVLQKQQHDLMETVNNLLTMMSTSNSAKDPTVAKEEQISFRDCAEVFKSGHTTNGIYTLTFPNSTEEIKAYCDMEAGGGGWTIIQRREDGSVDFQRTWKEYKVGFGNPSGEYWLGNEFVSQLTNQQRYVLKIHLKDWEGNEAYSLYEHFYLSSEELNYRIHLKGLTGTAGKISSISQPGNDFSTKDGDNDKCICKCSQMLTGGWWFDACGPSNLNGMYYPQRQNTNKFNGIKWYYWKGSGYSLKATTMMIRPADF
# B1: Compound 4048, peptide plus linker (T) (peptide)
# peptide: QK(Ac)YQPLDEK(Ac)DK(0P linker)TL[Phe(4-NO2)]DQFMLQQG-NH2
# modifications: reading uncertain; also: N-terminal acyl cap, acyl not given here, printed as Q(Kac)Y QPL DE(Kac) DK(0P)T L(NO2)FD QFM LQQ G
# notes: also called 4048 T
# B2: Compound 4061, peptide plus linker (T) (peptide)
# peptide: QXYQPLDELDKTLYDQFMLQQG
# modifications: not fully specified; N-terminal acyl cap; C-terminal amino cap; Nick 2; 0P linker on K11
# notes: also called 4061 T
# B3: Compound 4057, peptide plus linker (T) (peptide)
# peptide: QNYQPLDELDKTL[Phe(4-COOH)]DQFMLQQG-NH2
# modifications: not fully specified (residue 11, N-terminus); also: N-terminal acyl cap, acyl not given here
# notes: also called 4057 T
# B4: Compound 4056, peptide plus linker (T) (peptide)
# peptide: QNYQPLDELDKTL[Bpa]DQFMLQQG-NH2
# modifications: not fully specified (residue 11, N-terminus); also: N-terminal acyl cap, acyl not given here
# notes: also called 4056 T
# B5: Compound 4025, peptide plus linker (T) (peptide)
# peptide: QNYQPLDELDK(4P linker)TLYDQFMLQQG-NH2
# modifications: reading uncertain; also: N-terminal acyl cap, printed as QNY QPL DEL DK(4P)T LYD QFM LQQ G
# notes: also called 4025 T
# B6: Compound 4055, peptide plus linker (T) (peptide)
# peptide: QXYQPLDELDXTLYDQFMLQQG
# modifications: not fully specified; N-terminal acyl cap; C-terminal amino cap; Kac 2; 0P linker on Dap 11
# notes: also called 4055 T
# B7: Compound 4034, peptide plus linker (T) (peptide)
# peptide: QXYQXLDELDKTLYDQFMLQQG
# modifications: not fully specified; N-terminal acyl cap; C-terminal amino cap; Kac 2; D(HP) 5; 0P linker on K11
# notes: also called 4034 T
# B8: Compound 4046, peptide plus linker (T) (peptide)
# peptide: QK(Ac)YQ[Hyp]LDE[ThA]DK(0P linker)TL[Bpa]DQFMLQQG-NH2
# modifications: not fully specified; reading uncertain; also: N-terminal acyl cap, acyl not given here
# B9: Compound 4047, peptide plus linker (T) (peptide)
# peptide: QK(Ac)YQ[Hyp]LDE[ThA]DK(0P linker)TL[Phe(4-COOH)]DQFMLQQG-NH2
# modifications: not fully specified; reading uncertain; also: N-terminal acyl cap, acyl not given here
# notes: also called 4047 T
# B10: Compound 4045, peptide plus linker (T) (peptide)
# peptide: QK(Ac)YQ[Hyp]LDE[ThA]DK(0P linker)TL[Phe(4-NO2)]DQFMLQQG-NH2
# modifications: not fully specified; reading uncertain; also: N-terminal acyl cap, acyl not given here
# notes: also called 4045 T
# Target: T1, human angiopoietin-2 protein
# Assay: competitive ELISA: Tie-2-Fc binding to coated Ang-2; T
# Experimental: (§1) Plates were washed three times with washing buffer (0.1% Tween 20, PBS, pH 7.4) and blocked with Superblock (Scytek), […] at room temperature (“RT”) for 1 hour. […] Plates were washed 3 times with washing buffer. […] Following incubation, 50 ul of 1:5,000 dilution of goat anti-mouse IgG-HRP in Superblock was then added and incubated at RT for one hour. After washing 3 times, […] was added, and incubated for 3-5 minutes. Color development was monitored and stopped with 25 μl of 2 M H₂SO₄. OD450 nm with a correction wavelength of 540 nm was measured.
row,Binder,IC50 [nM]
1,B1,82.4
2,"XQXYQPLDELDKTLYDQFMLQQG (Amido 2-PEG at N-terminus; C-terminal amino cap; Kac 2; 0P linker on K11, also called 4052 T) [Compound 4052, peptide plus linker (T)]",134
3,B2,83.9
4,"QK(Ac)YQPLDEK(Ac)DKTL[Phe(4-COOH)]DQFMLQQG-NH2 (not fully specified (residue 11, N-terminus), also called 4062 T) [Compound 4062, peptide plus linker (T)]",499
5,B3,110
6,B4,92.2
7,B5,300
8,B6,598
9,"QXYQPLDELDKTXYDQFMLQQG (N-terminal acyl cap; C-terminal amino cap; Kac 2; 0P linker on K11; HF 13, also called 4039 T) [Compound 4039, peptide plus linker (T)]",4890
10,B7,224
11,"QXYQXLDELDKTLYDQFMLQQG (N-terminal acyl cap; C-terminal amino cap; Kac 2; HP 5; 0P linker on K11, also called 4035 T) [Compound 4035, peptide plus linker (T)]",121
12,"QXYQPLDELDKTLYDQFMLQQG (N-terminal acyl cap; C-terminal amino cap; Kac 2; 0P linker on K11, also called 4029 T) [Compound 4029, peptide plus linker (T)]",83.3
13,"XQXYQPLDELDKTLYDQFMLQQG (DCB at N-terminus; C-terminal amino cap; Kac 2; 0P linker on K11, also called 4049 T) [Compound 4049, peptide plus linker (T)]",28.4
14,"QXYQPLDELDKTXYDQFMLQQG (N-terminal acyl cap; C-terminal amino cap; Kac 2; 0P linker on K11; Nva 13, also called 4041 T) [Compound 4041, peptide plus linker (T)]",1340
15,B8,82.7
16,"XQXYQPLDELDKTLYDQFMLQQG (PyC at N-terminus; C-terminal amino cap; Kac 2; 0P linker on K11, also called 4051 T) [Compound 4051, peptide plus linker (T)]",14.3
17,B9,43.3
18,"QXYQPLDELDKTXYDQFMLQQG (N-terminal acyl cap; C-terminal amino cap; Kac 2; 0P linker on K11; HL 13, also called 4042 T) [Compound 4042, peptide plus linker (T)]",1340
19,"QXYQPLDELDXTLYDQFMLQQG (N-terminal acyl cap; C-terminal amino cap; Kac 2; 0P linker on Dab 11, also called 4054 T) [Compound 4054, peptide plus linker (T)]",292
20,"QXYQPLDEKDXTLYDQFMLQQG (N-terminal acyl cap; C-terminal amino cap; Kac 2; 0P linker on K9; Kac 11, also called 4030 T) [Compound 4030, peptide plus linker (T)]",279
21,B10,24.7
22,"XQXYQPLDELDKTLYDQFMLQQG (DFB at N-terminus; C-terminal amino cap; Kac 2; 0P linker on K11) [Compound 4050, peptide plus linker (T)]",33

# Target: T1, human angiopoietin-2 protein
# Assay: reverse competition ELISA presumed: Ang-2 binding to coated Tie-2-Fc; peptide alone
# Experimental: Plates were washed three times with washing buffer (0.1% Tween 20, PBS, pH 7.4) and blocked with Superblock, 150 μl/well at RT for 1 hour. Plates were washed three times. […] Plates were washed 3 times, and 50 W of streptavidin HRP (1:200 dilution in Superblock) was added at RT for 20 minutes. Plates were washed 3 times, and […] (25 μl TMB+25 μl H₂O₂) substrate solution was added and incubated for 20-30 minutes. Color development was stopped with 25 μl of 2 M H₂SO₄. OD450 nm with a correction wavelength of 540 nm was measured.
row,Binder,IC50 [nM]
1,QKYQPLDELDKTLYDQFMLQQG-NH2 (also: N-terminal acyl cap) [Compound 4021],36.4
2,QXYQPLDELDKTLYDQFMLQQG (N-terminal acyl cap; C-terminal amino cap; Kac 2) [Compound 4022],14.4

# Target: T1, human angiopoietin-2 protein
# Assay: competitive ELISA: Tie-2-Fc binding to coated Ang-2; peptide alone
# Experimental: as §1
row,Binder,IC50 [nM]
1,QNYQPLDELDKTLYDQFMLQQG-NH2 (also: N-terminal acyl cap) [Compound 4023],27.8
2,QKYQPLDELDKTLYDQFMLQQG-NH2 (also: N-terminal acyl cap) [Compound 4021],25.8
3,QXYQPLDELDKTLYDQFMLQQG (N-terminal acyl cap; C-terminal amino cap; Kac 2) [Compound 4022],41.9

# Target: T2, recombinant human VEGF165 (human, UniProt P15692-4 27-191)
# T2 construct: also called rhVEGF165
# Assay: competition ELISA: VEGF165 binding to coated VEGFR2/Fc; normalized value
# T2 sequence (P15692 other isoform, or with tags, fused parts or gaps limits assumed): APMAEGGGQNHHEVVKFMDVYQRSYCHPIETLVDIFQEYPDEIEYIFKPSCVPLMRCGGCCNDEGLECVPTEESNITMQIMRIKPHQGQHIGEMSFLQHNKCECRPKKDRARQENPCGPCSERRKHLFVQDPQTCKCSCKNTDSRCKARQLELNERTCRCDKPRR
row,Binder,IC50 [nM]
1,Ac-VEPNCDIHVMWVWECFERLYGGW-NH2 (disulfide 5-15 (inferred)) [[VEGF-Peptide] SEQ ID NO:35],325
2,Ac-VEPNCDIHVMWVWECFERLYREL-NH2 (disulfide 5-15 (inferred)) [[VEGF-Peptide] SEQ ID NO:39],70
3,Ac-VEPNCDIHVMWVWVCFERLFREA-NH2 (disulfide 5-15 (inferred)) [[VEGF-Peptide] SEQ ID NO:36],172
4,Ac-VEPNCDIHVMWVWVCFERLFKEA-NH2 (disulfide 5-15 (inferred)) [[VEGF-Peptide] SEQ ID NO:37],59
5,Ac-VEPNCDIHVMWEWECFERL-NH2 (disulfide 5-15 (inferred)) [[VEGF-Peptide] SEQ ID NO:34],188

# Target: T2, recombinant human VEGF165
# Assay: as above
# Remark: another data set of the same source
row,Binder,IC50 [nM]
1,Ac-VEPNCDIHVMWEWECFERL-NH2 (disulfide 5-15 (inferred)) [[VEGF-Peptide] SEQ ID NO:34],188

# Reference: patent US20120321591A1 (COVX TECHNOLOGIES IRELAND, published 2012)
